Source: patent US20120171209A1 (Ablynx, published 2012)
Changes are numbered by the printed parent chain.

T1: human soluble IL-6R, recombinant (human, UniProt P08887 20-358)
T1 construct: also called human IL6-R; bio-IL-6R
T1 sequence (looked up): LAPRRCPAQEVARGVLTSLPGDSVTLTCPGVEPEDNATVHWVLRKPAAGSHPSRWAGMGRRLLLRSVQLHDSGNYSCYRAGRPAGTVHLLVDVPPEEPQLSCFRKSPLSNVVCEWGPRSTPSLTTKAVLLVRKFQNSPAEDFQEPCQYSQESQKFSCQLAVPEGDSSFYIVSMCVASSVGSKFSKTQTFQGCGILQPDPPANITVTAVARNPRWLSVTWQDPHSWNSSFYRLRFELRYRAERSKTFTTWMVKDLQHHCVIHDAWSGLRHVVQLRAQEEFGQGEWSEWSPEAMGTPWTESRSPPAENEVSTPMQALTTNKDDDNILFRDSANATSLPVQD

T2: hybrid IL-6R (human, with rat sequence in domain I)
T2 construct: produced in HEK.EBNA cells and purified
T2 chain: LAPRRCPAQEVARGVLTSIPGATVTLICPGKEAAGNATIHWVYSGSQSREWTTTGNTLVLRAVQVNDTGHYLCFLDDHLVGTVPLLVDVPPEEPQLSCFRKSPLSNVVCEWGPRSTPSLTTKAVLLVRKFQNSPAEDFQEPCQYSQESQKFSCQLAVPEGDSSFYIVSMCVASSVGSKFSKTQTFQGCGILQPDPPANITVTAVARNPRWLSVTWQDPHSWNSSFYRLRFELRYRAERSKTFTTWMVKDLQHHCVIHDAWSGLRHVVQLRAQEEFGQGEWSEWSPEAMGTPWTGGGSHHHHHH

T3: cyno IL-6R on CHO-K1 cells, clone CyIL6R 405 (cynomolgus monkey (extracellular domain), UniProt A0A2K5WN54 60-499)
T3 construct: whole, on cells; chimeric construct on cells; also called CHO K1-cynomolgous IL-6R
T3 sequence: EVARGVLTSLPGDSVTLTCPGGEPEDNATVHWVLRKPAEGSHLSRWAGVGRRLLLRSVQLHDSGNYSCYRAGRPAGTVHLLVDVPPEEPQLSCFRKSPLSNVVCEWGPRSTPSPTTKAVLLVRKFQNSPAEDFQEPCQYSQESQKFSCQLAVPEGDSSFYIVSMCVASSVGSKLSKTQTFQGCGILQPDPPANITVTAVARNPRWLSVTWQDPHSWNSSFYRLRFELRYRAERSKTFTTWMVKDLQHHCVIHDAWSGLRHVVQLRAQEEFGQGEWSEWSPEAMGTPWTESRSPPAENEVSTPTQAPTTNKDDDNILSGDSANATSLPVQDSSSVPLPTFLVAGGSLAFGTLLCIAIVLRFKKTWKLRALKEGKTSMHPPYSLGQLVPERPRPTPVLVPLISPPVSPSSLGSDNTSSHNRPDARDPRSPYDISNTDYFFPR

B1: IL6RPMP107H2 (VHH)
VHH: KVQLVESGGGLVQPGGSLRLSCAASGFTFSSYAMSWVRRAPGKGLEWVSAINSDGTGSSYAPFVTGRFTASRDNAKNTLYLQMNSLKPEDTAVYYCTNSNRYDYADFSAVRGQGTQVTVSS
notes: family 27; also called IL6R107H2
B2: IL6RPMP104E4 (VHH)
VHH: EVQLVESGGGTVQAGGSLKLSCAASGRTFTNYAMGWFRQAPGKEREFVAAIAYATHFADSVKGRFTISRGNAKNTVYLQMNSLKPEDTAVYYCAADLSLSKMVSKITSDMDYWGKGTLVTVSS
notes: family 8; also called PMP104E04; IL6R104E4
B3: IL6RPMP108E1 (VHH)
VHH: EVQLVESGGGLVQAGGSLRLSCAASGFTFDDYDIGWFRQAPGKEREGVSGISSSDGNTYYADSVKGRFTISSDNAKNTVYLQMNSLKPEDTAVYYCAAEPPDSSWYLDGSPEFFKYWGQGTQVTVSS
notes: family 20; also called PMP108E01
B4: IL6RPMP103C4 (VHH)
VHH: EVQLVESGGGLVEAGGSLRLSCAAAGRTLSSYSMAWFRQAPGKEREFVAIIRGNPSRTYHSDSVKGRFTASRDNAKNTVYLQMNRLEPEDTAVYYCAADPPPFASDYSAPQSYDYWGQGTQVTVSS
notes: family 19; also called IL6R103C4
B5: IL6RPMP105E1 (VHH)
VHH: EVQLVESGGGLVQAGGSLRLSCAASGSIFSIKAMGWYRQAPGKQRELVARITSGGSTYYADSVKGRFTISRDNAKNTVYLQMNSLKPEDTAVFYCNAIVTDSDYDLGNDYWGQGTQVTVSS
notes: family 7; also called PMP105E01; IL6R105E1
B6: IL6RPMP107A1 (VHH)
VHH: EVQLVESGGGLVQAGGSLNLSCNASGDIGSINAMGWYRQAPGQQREWVAVITDTDSTIYPDSVKGRFAISRDGAKNTVHLRMSSLKPEDTAVYYCNAYQAGWGDYWGQGTQVTVSS
notes: also called IL6R107A1
B7: IL6RPMP103H9 (VHH)
VHH: EVQLVESGGGLVQPGGSLRLSCAASKSIFDINAMYWHRQAPGKQRESVASITSGGMRNYADSVKDRFTISKDNAKNTVYLQMNGLKPDDTAVYYCGLGRYEGGVWRDYWGQGTQVTVSS
notes: family 13; also called PMP103H09; IL6R103H9
B8: IL6RPMP107A9 (VHH)
VHH: EVQLVESGGGLVQAGGSLRLSCAASGGIFSDMFMGWFRQAPGKSRESVARISPSGNTFYQDSVRGRFTISTDNAKNTVYLQMNNLKPEDTAVYYCAANVGVTGSYEYWGQGTQVTVSS
notes: family 21; also called IL6R107A9
B9: IL6RPMP120A5 (VHH)
VHH: EVQLVESGGGLVQAGGSLSLSCATSGRTISDDTMAWFRQAPGKEREFVAIITFNGARTHYSDSVRDRFTISRDNAKNTVYLQMNSLKSEDTAVYYCAASTKYYSSTYNYIHPAFYDIWGQGTQVTVSS
notes: family 28; also called IL6R120A5
B10: IL6RPMP103C7 (VHH)
VHH: B9 VHH with I50T, N54S, N84D
notes: family 28
B11: IL6RPMP101B12 (VHH)
VHH: EVQLVESGGGLVQPGGSLRLSCAASGVTLDYYAIGWFRQAPGKEREGVSSISSNDGSTFYADSVKGRFTISRDKAKNTVYLQMNSLKPEDTAVYYCAATYLTAQAVGVPVAYYEFDYWGQGTQVTVSS
notes: family 2; also called IL6R101B12
B12: reference Fab (Fab, V domains shown)
VH: QVQLQESGPGLVRPSQTLSLTCTVSGYSITSDHAWSWVRQPPGRGLEWIGYISYSGITTYNPSLKSRVTMLRDTSKNQFSLRLSSVTAADTAVYYCARSLARTTAMDYWGQGSLVTVSS
VL: DIQMTQSPSSLSASVGDRVTITCRASQDISSYLNWYQQKPGKAPKLLIYYTSRLHSGVPSRFSGSGSGTDFTFTISSLQPEDIATYYCQQGNTLPYTFGQGTKVEIKR
notes: expressed in the periplasm of E. coli

These binders were tested against cynomolgus soluble IL-6R, native, in cynomolgous plasma (cynomolgus monkey) (assay: ELISA 2, cyno plasma sIL-6R, periplasmic extract, competitor IL-6).

Row | OD450 ratio sample/blank | Binder
1 | 0.6 | B1

What follows are binders tested against cynomolgus IL-6R used in Biacore (cynomolgus monkey) (assay: Biacore, periplasmic extract).

Row | koff [s⁻¹] | Binder
2 | 0.00045 | B2
3 | 0.001 | B3
4 | 0.001 | B4
5 | 0.001 | B5
6 | 0.01 | B6
7 | 0.01 | B7
8 | 0.01 | B8

These binders were tested against T1, human soluble IL-6R, recombinant (assay: Biacore, periplasmic extract).
Experimental: Periplasmic extracts of representative family clones were also analyzed on Biacore. Dissociation curves were used to calculate koff rates. koff rates are depicted in Table C-6.

Row | koff [s⁻¹] | Binder
9 | 0.00075 | B2
10 | 0.0001 | B1
11 | 0.0001 | B3
12 | 0.001 | B4
13 | 0.00041 | B5
14 | 0.00075 | B6
15 | 0.01 | B7
16 | 0.01 | B8

What follows are binders tested against IL-6R on the surface of TF-1 cells (UniProt P08887) (assay: cell-based or functional assay).
Sequence of IL-6R on the surface of TF-1 cells (P08887 20-468 limits assumed): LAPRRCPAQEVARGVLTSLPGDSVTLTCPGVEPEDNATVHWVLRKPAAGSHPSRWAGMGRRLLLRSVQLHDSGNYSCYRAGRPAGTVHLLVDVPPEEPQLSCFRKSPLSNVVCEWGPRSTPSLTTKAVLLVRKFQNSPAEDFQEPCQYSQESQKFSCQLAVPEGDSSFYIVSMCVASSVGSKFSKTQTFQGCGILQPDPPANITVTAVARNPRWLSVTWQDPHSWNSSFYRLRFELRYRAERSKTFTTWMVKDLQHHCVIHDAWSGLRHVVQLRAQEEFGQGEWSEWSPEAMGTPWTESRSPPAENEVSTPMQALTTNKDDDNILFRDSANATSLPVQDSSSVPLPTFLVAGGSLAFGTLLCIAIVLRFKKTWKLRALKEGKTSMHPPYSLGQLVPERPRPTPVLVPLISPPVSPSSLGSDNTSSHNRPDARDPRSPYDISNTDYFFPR

Row | IC50, IL-6-dependent proliferation of TF-1 cells [nM] | Binder
17 | 5.59 | B9
18 | 61.3 | B10
19 | 0.149 | B3
20 | 15.6 | B4
21 | 6.2 | B5
22 | 4.05 | B6
23 | 1470 | B7
24 | 349 | B8

Biological target: T2, hybrid IL-6R
Assay: sandwich ELISA, coated hybrid IL-6R, anti-myc-HRP detection
Experimental: The panel of purified Nanobodies was tested by standard sandwich ELISA with coated human IL-6R versus hybrid IL-6R (see Example 3). Anti-myc-horseradish peroxidase (AbD Serotec, Oxford, UK) was used as a detection antibody. Only Nanobodies with koff rates that were low enough to give a positive signal towards human IL-6R are depicted.

Row | binding result | Binder
25 | no binding | B2
26 | no binding | B11

Each binder was assayed against T3, cyno IL-6R on CHO-K1 cells, clone … (assay: FMAT on CHO cells, competitor labelled Reference IgG).
Experimental: Eleven inhibitory Nanobodies were tested in competition with labelled Reference IgG for binding to
CHO cells expressing hIL-6R or cynoIL-6R.

Row | IC50 [nM] | Binder
27 | 27 | B9
28 | 75 | B10
29 | 30 | B4
30 | 0.8 | B12
31 | 13 | B5
